Experimental data reported in patent publication US20200291391A1, “CROSS-LINKED EPITOPES AND METHODS OF USE THEREOF” (Indi Molecular, Inc., priority 2019, published 2020).

What was measured:
[1] = biological target: CD8 on CD8+ SupT1 cells (human) (UniProt P01732); assay: flow cytometry on CD8+ SupT1 cells
[2] = biological target: CD8 on CD8+ SupT1 cells (human) (UniProt P01732); assay: flow cytometry on CD8+ SupT1 cells; remark: listed apart in the source
[3] = biological target: CD8 on CD8+ SupT1 cells (human) (UniProt P01732); assay: flow cytometry on CD8+ SupT1 cells; ligand at 4 µM
[4] = biological target: CD8 on CD8+ SupT1 cells (human) (UniProt P01732); assay: flow cytometry on CD8+ SupT1 cells; ligand at 0.4 µM
[5] = biological target: CD8 on CD8+ SupT1 cells (human) (UniProt P01732); assay: flow cytometry on CD8+ SupT1 cells; ligand at 1.3 µM
[6] = biological target: CD8 on CD8+ SupT1 cells (human) (UniProt P01732); assay: flow cytometry on CD8+ SupT1 cells; ligand at 0.05 µM
[7] = biological target: CD8 on CD8+ SupT1 cells (human) (UniProt P01732); assay: flow cytometry on CD8+ SupT1 cells; ligand at 0.15 µM
[8] = biological target: CD8 on CD8+ SupT1 cells (human) (UniProt P01732); assay: flow cytometry on CD8+ SupT1 cells; ligand at 4 µM, 4° C.
[9] = biological target: CD8 on CD8+ SupT1 cells (human) (UniProt P01732); assay: flow cytometry on CD8+ SupT1 cells; ligand at 4 µM, room temperature
[10] = biological target: immobilized recombinant CD8 protein (UniProt P01732); assay: solid-phase ELISA on immobilized recombinant CD8 protein

Chain of CD8 on CD8+ SupT1 cells (human) (P01732 22-235): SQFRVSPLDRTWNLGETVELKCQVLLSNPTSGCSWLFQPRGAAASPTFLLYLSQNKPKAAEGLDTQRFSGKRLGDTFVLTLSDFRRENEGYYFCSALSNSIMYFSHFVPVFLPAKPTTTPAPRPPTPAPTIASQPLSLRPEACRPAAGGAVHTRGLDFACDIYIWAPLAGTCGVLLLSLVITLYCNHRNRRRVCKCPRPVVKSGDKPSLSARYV

Substance | MFIR (Mean Fluorescence Intensity Ratio) (ratio relative to unstained) [1] | MFIR (Mean Fluorescence Intensity Ratio) (ratio relative to Biotin1k-PEG) [1] | further results
Biotin anti-CD8a Ab (Clone RPA-T8) (antibody) | 73.9 | – | MFIR (Mean Fluorescence Intensity Ratio) (ratio relative to unstained) [2]: 86.6
Biotin-1kPEG-cy(tfpkk) (SEQ ID NO: 21) (peptide) | 1.8 | – | MFIR (Mean Fluorescence Intensity Ratio) (ratio relative to unstained) [3]: 1.5; MFIR (Mean Fluorescence Intensity Ratio) (ratio relative to unstained) [4]: 1.1; MFIR (Mean Fluorescence Intensity Ratio) (ratio relative to unstained) [5]: 1.1; MFIR (Mean Fluorescence Intensity Ratio) (ratio relative to unstained) [6]: 1; MFIR (Mean Fluorescence Intensity Ratio) (ratio relative to unstained) [7]: 1; MFIR (Mean Fluorescence Intensity Ratio) (ratio relative to unstained) [8]: 1.5; MFIR (Mean Fluorescence Intensity Ratio) (ratio relative to unstained) [9]: 1.5
Biotin-1kPEG-rpyay (SEQ ID NO: 35) (peptide) | – | 1 | –
Biotin-1kPEG-yfrsr (SEQ ID NO: 33) (peptide) | – | 1.1 | –
Biotin-1kPEG-yrsny (SEQ ID NO: 34) (peptide) | – | 1 | –

Continued, in another order:

MFIR (Mean Fluorescence Intensity Ratio) (ratio relative to unstained) [1] | MFIR (Mean Fluorescence Intensity Ratio) (ratio relative to Biotin1k-PEG) [1] | Substance | further results
– | 1.1 | Biotin-1kPEG-aykfn (SEQ ID NO: 36) (peptide) | –
1.6 | – | Biotin-1kPEG-cy(krsah) (SEQ ID NO: 27) (peptide) | –
1.1 | – | Biotin-1kPEG-cy(snprk) (SEQ ID NO: 28) (peptide) | –
– | 1.2 | Biotin-1kPEG-nfyrr (SEQ ID NO: 32) (peptide) | EC50 [10]: 47 nM
– | 1.1 | Biotin-1kPEG-rftaf (SEQ ID NO: 37) (peptide) | –
– | 2 | Biotin-1kPEG-vlyrr (SEQ ID NO: 30) (peptide) | EC50 [10]: 77 nM
– | 1.1 | Biotin-1kPEG-yrpfy (SEQ ID NO: 31) (peptide) | –
